Reference: article PMC2958839, “Multiple FadD Acyl-CoA Synthetases Contribute to Differential Fatty Acid Degradation and Virulence in Pseudomonas aeruginosa” (PLoS ONE, 2010)

Tests used:
Assay in all cases: purified protein
Conditions in all cases: 5 mM ATP, 0.5 mM CoASH, 30-300 µM FA, 10 mM MgCl2, 0.1% Triton X-100, pH 7.2, 37°C, printed unit mM conflicts with printed kcat/Km and FA range (implies µM)
[1] = test system: CCCCCC(=O)O
[2] = test system: CCCCCCCC(=O)O
[3] = test system: CCCCCCCCCCCC(=O)O
[4] = test system: CCCCCCCCCCCCCC(=O)O
[5] = test system: CCCCCCCCCCCCCCCC(=O)O
[6] = test system: CCCC(=O)O
From the text: (§1) DTNB (Ellman) assay of CoASH consumption, A412, Hanes-Woolf plot on FadD1

[7] = test system: CCCCCCCCCC(=O)O
From the text: as §1

Row | Substance | kcat [1] [s⁻¹] | kcat [2] [s⁻¹] | kcat [3] [s⁻¹] | kcat [4] [s⁻¹] | kcat [5] [s⁻¹] | kcat [6] [s⁻¹] | kcat [7] [s⁻¹]
1 | FadD2 (Pseudomonas aeruginosa PAO1) | 0.164 | 0.210 | 0.141 | 0.112 | 0.102 | – | –
2 | FadD1 (Pseudomonas aeruginosa PAO1) | 0.137 | 0.128 | 0.134 | 0.134 | 0.158 | 0.141 | 0.119
